Experimental data published in patent US20060252716A1, “Method for reversing the immunosuppressive effects of the melanoma inhibitory activity "mia"” (priority 2000, published 2006).

What was measured:
[1] = tested on: MIA; test: Inhibition of MIA expression by antisense sequences; format: cell-based, human
[2] = tested on: malignant melanoma cell; details: cited from earlier work
[3] = tested on: LAK cytotoxicity against malignant glioma cell lines (HTZ-17, -243, -374, -375); test: CARE-LASS calcein-release assay, effector cells pretreated with MIA; format: cell-based
Source text: To study the effects of MIA upon cytotoxic T-lymphocytes (CTL) and Lymphokine Activated Killer cells (LAK cells) a CARE-LASS assay has been employed (Lichtenfels, R., Biddison, W. E., Schulz, H., Vogt, A. B. and R. Martin. CARE-LASS (calcein-release assay), an improved fluorescence based test system to measure cytotoxic lymphocyte activity J. Immunol. Meth., 172: 227-239, 1994). Briefly, glioma cells were harvested, washed in 5% FCS/PBS solution and resuspended at 10 Mio cells/ml in 5% FCS/FBS. Calcein-AM was added to a final concentration of 25 μM (Molecular Probes, USA). The cells were labeled for 30 min at 37° C. then washed twice in 5%/FCS/PBS, adjusted to 1 Mio cells/ml and loaded into 96-well U-shaped microtiter plates at the final concentration of 0.1 Mio/100 μL/1 well (Nunc, Denmark). To measure cytotoxic activity of effector cells pretreated with MIA (f.c. 500 ng/ml), wells were loaded with 100 μL of CTL and LAK cells to produce the desired E:T ratios of […]. […] After incubating the plate for 4 h at 37° C. the supernatants (50 μL) were transferred into new wells and measured using an automated fluorescence scanner (Titertek Fluoroskan II, Germany). The percent cytotoxicity was determined from the following equation: [formula]

[4] = tested on: Peripheral Blood Mononuclear Cells (PBMCs); details: addition of MIA; cited from earlier work
[5] = tested on: cells; details: cited from earlier work
[6] = tested on: human MIA-secreting melanoma as well as breast cancer cell lines; test: Tumor invasion and metastasis in scid-mice and nude mice; format: in vivo; details: transfecting vector expressing the antisense sequence
Source text: Inhibition of endogenous MIA synthesis by a transfecting vector expressing the antisense sequence (SEQ. ID No 9): […]

MIA-2842-W: MIA antisense sequence TGC CTC CCC AGA AG (antisense TGCCTCCCCAGAAG; all phosphorothioate, sugars by position and methylation of C not given here; listed as Homo sapiens)
inhibiting MIA expression [1]: Active

MIA-1278-W: MIA antisense sequence CTT GGA GAA GAG ATA C
inhibiting MIA expression [1]: Active

MIA-2841-W: MIA antisense sequence GTC AGG AAT CGG GAG
inhibiting MIA expression [1]: Active

MIA-0202-N: MIA antisense sequence ATG GTG AGG AAT CG
inhibiting MIA expression [1]: Less active or inactive

MIA-1277-N: MIA antisense sequence GAA TGG TCA GGA ATG G
inhibiting MIA expression [1]: Less active or inactive

B1: MIA: polypeptide Melanoma Inhibitory Activity; 131-amino acid precursor processed into a mature 107-amino acid protein (protein, UniProt Q16674 25-131, looked up)
Melanoma-derived growth …: GPMPKLADRKLCADQECSHPISMAVALQDYMAPDCRFLTIHRGQVVYVFSKLKGRGRLFWGGSVQGDYYGDLAARLGYFPSSIVREDQTLKPGKVDVKTDKWDFYCQ
tumor cell growth inhibition [2]: potent tumor cell growth inhibitor
inhibition of autologous and allogenic LAK cytotoxicity compared to controls ([3]; MIA f.c. 500 ng/ml, E:T ratios 1:10 and 1:100, 4 h): up to 40%
Allogenic anti-glioma LAK immune response ([3]; exogenous addition of MIA): strongly inhibited
IL-2-stimulated PBMC proliferation [4]: only slightly inhibited
inhibits cell proliferation (cell cycle effect) [5]: prolonging of the S-Phase and arrest of the cells in the G2 compartment

B2: SEQ. ID No 9: long MIA antisense sequence, or parts of it, expressed from a transfecting vector (nucleic acid, listed as Homo sapiens)
antisense: GGCAGGGCCAGCGGTAGGCTGAGCTCACTGGCAGTAGAAATCCCATTTGTCTGTCTTCACATCGACTTTGCCAGGTTTCAGGGTCTGGTCCTCTCGGACAATGCTACTGGGGAAATAGCCCAGGCGAGCAGCCAGATCTCCATAGTAATCTCCCTGAACGCTGCCTCCCCAGAAGAGCCGCCCACGGCCCTTCAGCTTGGAGAAGACATACACCACTTGGCCCCGGTGAATGGTCAGGAATCGGCAGTCGGGGGCCATGTAGTCCTGAAGGGCCACAGCCATGGAGATAGGGTGGCTGCACTCCTGGTCCGCACACAGCTTCCGGTCAGCCAGCTTGGGCATAGGACCACCCCTGACACCAGGTCCGGAGAAGGCAGACAGCAAGATGATGACACCAAGGCACACCAGGGACCGGGCCATCGTGGACTGTGAGCAAGAGAGTGAGCAAGGGGGTGCTGG
modifications: expressed from transfecting vector
tumor invasion and metastasis [6]: strongly reduced
